Assay: soluble on expression in E. coli; label from the status in PepcDB or PDB records

For “MTYIALIGDIIQSKQLTDRSKVQKTLAAYLDDLNKTFAPYIISKLSLTLGDEFQGLFQVDTPIFHLIDLINHHMDIPIRFGVGVGSILTDINPDISIGADGPAYWHAREAIRYIHQKNDYGNTTLALRTGHHNQDDVLNSLLAAGDAIKANWRASQWEIFDTLLDLGIYEEYFDQQRLGKQLSLSSSALSKRLKSSHVKIYLRTRQSALNCLKQIKEETDD”, the “soluble on expression in E. coli” value was “not soluble”.

For “YHETVIYEAHVKGMTQTHPSIPPELRGTYAGLAHPVIIDHLNELNVTAVELMPVHQFLHDSRLLDLGLRNYWGYNTFGFFAPHHQYASTRQAGSAVAEFKTMVRSLHEAGIEVILDVVYNHTAEGNHLGPTINFRGIDNTAYYRLMDHDLRFYKDFTGTGNSLNARHPHTLQLIMDSLRYWVIEMHVDGFRFDLASTLARELHDVDRLSAFFDLVQQDPVVSQVKLIAEPWDVGEGGYQVGNFPGLWTEWNGKYRDTVRDYWRGEPATLGEFASRLTGSSDLYEATGRRPSASINFVTAHDGFTLNDLVSYNDKHNEANGENNRDGESYNRSWNCGVEGPTDDPDILALRARQMRNMWATLMVSQGTPMIAHGDEIGRTQYGNNNVYCQDSELSWMDWSLVDKNADLLAFARKATTLRKNHKVFRRRRFFEGEPIRSGDEVRDIAWLTPSGREMTHEDWGRGFDRCVAVFLNGEAITAPDARGERVVDDSFLLCFNAHDHDVEFVMPHDGYAQQWTGELDTNDPVGDIDLTVTATDTFSVPARSLLVLRKTL”, the “soluble on expression in E. coli” value was “soluble”.

For “MERDGCFGNCWLRRWEKSDMNRKGFGGHRDAKQLSRTKNRFARLDPDTQSRYEDDDEPAVPVRASLTSASSRGRGGSSRGFGQSAASIANTGVRNADIVYKCRATGAAKKVDAKWLIKQLNQIIENFKPLLWTDNARGDFEWYVRDEDTASTIRANNRRVVHKESGTRVEFYTSKVPAPWMKLKREEIEIIHRVVDKRHNAENRVLDLSNFHEDEEFKAKDMMMNLTKGNVMLTVLDHIDDKYGNIVALSLSNNRIRHLDYASALVSIAKFVMELDLSHNHISTEKELEKFAGLPVERFFFEGNPVVESFTQRAAYISYIHQSFPRCNMLDGVEVQPLVVGPDLDIHDAMPFRAGYYPNPQIRVLVEQFVTSYFDFYDGPDGQRTRRNLHNAYDADASTFSLTIEHLRGSSHARHHNDECFAQYAGVSHNVLKQERFARHRASRSARGAMDIAVALSKLPTSSHMRDTFIVDVFLQSNDLLGFTVQGLFCDGDLTQTPSPSFFSRSFLVSPRENDSVAVISDQLFITVASLDRLEKFKKLYDQSIANGAAVEQVSAVQIAQIGVNGMGFDGAPALPIREEMIKAMCQFSGMIPPFSEKCLADCAWNFDFACQKFNEIKSSVPAEAFAH”, the “soluble on expression in E. coli” value was “not soluble”.

In the case of “MGSDKIHHHHHHMALVKCQSLNEIPMTATNHMDTSVQHVDIAIVGGAMAGATLALALARLSLSAARPLSIALIEAHLPDKQHPGFDARSIAIAHGSIFELSRLGLWPKLAHLGTAIENIHVSDRGHFGMTELNAAQFHLDALGQVVELERVGQVLFNELNKSEVKLYCPAKLAQVEPAVEGHTLVLDTGKRLKAKLVVAADGLQSKVRSSFDLPVTQVAFEQTAIIANIQTDKPHQHLAYERFTQTGPLALLPMADSQGKPRLSLVWALDDARAKQMQTAPKAEFLAALQQAFGYRAGTFIDVSARHAYPLNLSYMPRPIHHRCVFIGNAAQTLHPIAGQGFNLGLRDVVSLLEVLKTALDQGDDIGSAAVTHAYLNAREHDRNSTIRNIEFLVRGFSNQYWPMALGRNLGLRLLSWFPPLKTPVAQKAMGWK”, the “soluble on expression in E. coli” value is reported as “not soluble”.

With “MKHMEKFANHFGYNRMFAKDQLTLGVHIPIENYQFHAPTMEKQVELVQKAEQYGFTGVWLRDVLLQDPDFGDPATGQIYDMMIYLTYLASKTEKIAFGTSATVLSLRHPLRVAKEIATLDQLFPERIMLGVSSGDRRADFKALGVSHETRGEKFREAFAYLEEILYKNFPSIQSTLGEVHGANLVPKPSKRVPTFITGFSQQNMEWFAEHGDGWMYYPRSPVHQAGAIGQWRELVEDYHPDVFKPFIQPMHLDLSEDPNERPTPIRLGYRTGRKALIELLDIYKSIGVNHLFLALFDGQRPADEVLDELGEEVLPHFPAL” the “soluble on expression in E. coli” value was “soluble”.

For “GQEVTMWGDSHGVAPNQVRRTLVKVALSESLPPGAKQIRIGFSLPKETEEKVTALYLLVSDSLAVRDLPDYKGRVSYDSFPISKEDRTTALSADSVAGRRFFYLAADIGPVASFSRSDTLTARVEEVAVDGRPLPLKELSPASRRLYRGY”, the “soluble on expression in E. coli” value was “not soluble”.

In the case of “MNYAEICIIKRDGKREDFSISKIKNAVSKAFSATGINDEQQLIADITMNVIGQFASPTITVEEIQDLVEKELMKVRPEVAKKYIIYREWRNTERDKKTQMKHVMDGIVAIDKNDVNLSNANMSSHTPAGQMMTFASEVTKDYTYKYLLPKRFAEAHQLGDIHIHDLDYYPTKTTTCIQYDMDDLFERGFRTKNGSIRTPQSIQSYATLATIIFQTNQNEQHGGQAIPAFDFFMAKGVSKSFRKHLASFISFYVQMNKGEEIEEKAIRTVIAEHLSSIKASELERETLRMALTALQINIDKEHLNQIIEKAFVQTQKDTHQAMEGFIHNLNTMHSRGGNQVVFSSINYGTDTSAEGRMVIEELLKATVEGLGTRGEVPVFPIQIFKIKNGVSYTEADYEKAMANFDAAMEGKLKFEAPNFDLFLKACHTTAKALFPNFMFLDAPFNQNEKWDANDPQRYRYELATMGCRTRVFENVAGEKSSLGRGNLSFTTLNMPRLAIEARIKAENMTEDGHNKDAVERKAKEIFIESIHETATLIAEQLYERYQYQRTALARQFPFMMGNDVWKGGAALNPNEQVGDVLRSGTLGIGFLGGHNAMVALYGEGHGHSQKAWDTLYEAVLEINKVADEYKAKYNLNYSVLATPAEGLSGRFTRMDRRKYGKIKGVTDNDYYVNSFHVDVKEPISIVEKIKREAPFHAITRGGHITYVELDGEAQKNVRAIAKIVKVMFDEGIGYGSINHPVDTCHNCGYKGVIYDKCPVCQSENILRMRRITGYLTGDLSSWNSAKRAEEKDRVKHG”, the “soluble on expression in E. coli” value is reported as “not soluble”.

In the case of “MSLGGSVEVLHWWTAGGEAKAVSALKDQFEAEGGTWIDSPVAGGGGDAAMTALRSRVIAGNPPSAVQLKGPSIQEWAAEGVVANLDDIAKAENWDKLLPALLKSVVTYEGHYVAVPVNIHRVDWLWANPAVLAKAGVAVPTTWDEFNTAAEALKAKGIIPLAHGGQPWQDATLFEVVVLGLGGPAFYHKALVELDDAALRGDTMVKVFDQMRRLRGFVDPNFSGRDWNLATAMVINGEAGFQIMGDWAKGEFLGAGKVPGKDFLCIAAPGKGFLLNSDSLVMFDVKGADKIEGQKTLARLVLGETFQRTFNTLKGSIPARQGMDLADFDACAQKSQADLTKAIAADSLEPSMAHEMAVPRSVRGAIMDVVTAHFNSSESSAEAVAHLADSIAQAREGHHHHHH”, the “soluble on expression in E. coli” value is reported as “soluble”.

In the case of “MGSDKIHHHHHHENEYITNIDRTFGTRISYEISKRYGELGLEGSRSITIGLKGHAGQSFCAFLAKGVSVTLEGDANDYVGKCLSGGKIVIFPPKAASYKSEENSVIGNVALYGATSGDCWFRGVAGERFAVRNSGANVIVEAVGDHGCEYMTGGRVIVLGSIGRNFAAAMSGGIAYLFAQEDNFSRLINAATVDLDDASTEDLIFVKAK”, the “soluble on expression in E. coli” value is reported as “not soluble”.

In the case of “GSHMPVVHVIDVESGNLQSLTNAIEHLGYEVQLVKSPKDFNISGTSRLILPGVGNYGHFVDNLFNRGFEKPIREYIESGKPIMGICVGLQALFAGSVESPKSTGLNYIDFKLSRFDDSEKPVPEIGWNSCIPSENLFFGLDPYKRYYFVHSFAAILNSEKKKNLENDGWKIAKAKYGSEEFIAAVNKNNIFATQFHPEKSGKAGLNVIENFLKQQSPPIPNYSAEEKELLMNDYSNYGLTRRIIACLDVRTNDQGDLVVTKGDQYDVREKSDGKGVRNLGKPVQLAQKYYQQGADEVTFLNITSFRDCPLKDTPMLEVLKQAAKTVFVPLTVGGGIKDIVDVDGTKIPALEVASLYFRSGADKVSIGTDAVYAAEKYYELGNRGDGTSPIETISKAYGAQAVVISVDPKRVYVNSQADTKNKVFETEYPGPNGEKYCWYQCTIKGGRESRDLGVWELTRACEALGAGEILLNCIDKDGSNSGYDLELIEHVKDAVKIPVIASSGAGVPEHFEEAFLKTRADACLGAGMFHRGEFTVNDVKEYLLEHGLKVRMDEE”, the “soluble on expression in E. coli” value is reported as “soluble”.

With “GSPGISGGGGGILGLMAEQEPTAEQLAQIAAENEEDEHSVNYKPPAQKSIQEIQELDKDDESLRKYKEALLGRVAVSADPNVPNVVVTRLTLVCSTAPGPLELDLTGDLESFKKQSFVLKEGVEYRIKISFRVNREIVSGMKYIQHTYRKGVKIDKTDYMVGSYGPRAEEYEFLTPMEEAPKGMLARGSYNIKSRFTDDDRTDHLSWEWNLTIKKEWKD” the “soluble on expression in E. coli” value was “soluble”.

With “MAMSTKLSVAIHILSLIETGPQEQVTSEYIASSVNTNPVVVRRLMSQLKKAGLIHSMRGANKNTLLKKPEEISLYEIYTAVELEREIFNIHQNPNPNCSVGANIQSVLETEFTKVQQKMEEELKSITLADVIHEIEVKRDK” the “soluble on expression in E. coli” value was “not soluble”.

With “GPGSMNLELYVTLADLSRLPRGEPHDVKTLICRADTVRAPRPRELLSGRVFDISGQLLDTEYKGMPGETCVHVFFYDEWASAASFIERDDIVILKGFTVYDTPRVGDHDVEFPFFVTPIPHMAALRALQKGHKDDIMEVTVTADALETPNIRVMPKRLWGSYIANDMQCPRTNND” the “soluble on expression in E. coli” value was “soluble”.

In the case of “MSSNCTSTTAVAVAPLSASKTKTKKKHFVCQKVKLFRASEPILSVLMWGVNHTINELSNVPVPVMLMPDDFKAYSKIKVDNHLFNKENLPSRFKFKEYCPMVFRNLRERFGIDDQDYQNSVTRSAPINSDSQGRCGTRFLTTYDRRFVIKTVSSEDVAEMHNILKKYHQFIVECHGNTLLPQFLGMYRLTVDGVETYMVVTRNVFSHRLTVHRKYDLKGSTVAREASDKEKAKDLPTFKDNDFLNEGQKLHVGEESKKNFLEKLKRDVEFLAQLKIMDYSLLVGIHDVDRAEQEEMEVEERAEDEECENDGVGGNLLCSYGTPPDSPGNLLSFPRFFGPGEFDPSVDVYAMKSHESSPKKEVYFMAIIDILTPYDTKKKAAHAAKTVKHGAGAEISTVNPEQYSKRFNEFMSNILT”, the “soluble on expression in E. coli” value is reported as “soluble”.

With “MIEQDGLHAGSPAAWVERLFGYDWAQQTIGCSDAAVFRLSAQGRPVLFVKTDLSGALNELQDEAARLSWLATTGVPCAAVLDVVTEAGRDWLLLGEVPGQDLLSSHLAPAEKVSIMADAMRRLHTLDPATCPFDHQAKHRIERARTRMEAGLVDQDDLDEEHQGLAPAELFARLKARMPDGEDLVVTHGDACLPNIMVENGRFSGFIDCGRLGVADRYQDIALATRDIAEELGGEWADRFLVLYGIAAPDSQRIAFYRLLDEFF” the “soluble on expression in E. coli” value was “soluble”.

In the case of “MDEEMLIPEEEYQKSGVHIGTQVKSSDMKPYIFKIRNDGLYILDVKKTNSKLIVAGKMLARFEPQDILVVAQRQYAFRPVAKFAEVTGATAITGRFNPGTLTNPSLKFYKEVKVIIVTDPLADVQAMKEAVKIGIPIIALCDANNKTDFVDLIIPTNNKGRRSLAVIYWLLAREILKNRGTITSYDQFKYTIDDFEAQI”, the “soluble on expression in E. coli” value is reported as “not soluble”.

Source: the DeepSol protein solubility set
